Reference: US20160237160A1 (Bayer, published 2016)

T1: BCMA (TNFRSF17) Fc fusion protein (Human, UniProt Q02223 1-54)
T1 construct: extracellular domain; bought
T1 sequence (looked up): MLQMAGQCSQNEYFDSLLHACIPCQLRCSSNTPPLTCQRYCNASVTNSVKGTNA

T2: GITR (TNFRSF18) Fc fusion protein (Human, UniProt Q9Y5U5 26-162)
T2 construct: extracellular domain; bought
T2 sequence (looked up): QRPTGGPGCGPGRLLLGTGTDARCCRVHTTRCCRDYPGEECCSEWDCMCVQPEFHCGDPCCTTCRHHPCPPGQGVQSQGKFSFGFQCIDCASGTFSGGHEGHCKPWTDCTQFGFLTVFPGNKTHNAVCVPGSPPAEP

T3: NGF R (TNFRSF16) Fc fusion protein (Human, UniProt P08138 29-250)
T3 construct: extracellular domain; bought
T3 sequence (looked up): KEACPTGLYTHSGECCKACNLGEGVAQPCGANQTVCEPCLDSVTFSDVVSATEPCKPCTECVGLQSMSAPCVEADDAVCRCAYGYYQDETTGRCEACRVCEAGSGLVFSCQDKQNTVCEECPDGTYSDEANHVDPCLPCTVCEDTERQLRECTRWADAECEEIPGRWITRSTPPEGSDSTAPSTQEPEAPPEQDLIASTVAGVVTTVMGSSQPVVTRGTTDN

T4: OX40 (TNFRSF4) Fc fusion protein (Human, UniProt P43489 29-214)
T4 construct: extracellular domain; bought
T4 sequence (looked up): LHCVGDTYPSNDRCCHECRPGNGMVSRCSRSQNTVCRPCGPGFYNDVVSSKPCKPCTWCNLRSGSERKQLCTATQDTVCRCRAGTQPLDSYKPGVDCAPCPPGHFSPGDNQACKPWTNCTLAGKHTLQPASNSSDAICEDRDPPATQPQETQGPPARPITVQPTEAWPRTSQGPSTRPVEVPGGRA


Assays:
[1] = target: T5, TPP-2620 (TweakR-ECD-34-68-hIgGFc-His-P59A) (human); experiment: ELISA, IgG coated 1 ug/ml, HEK293 supernatant titrated
T5 construct: used as HEK293 supernatant
Protocol: (§1) These TWEAKR(34-68)-Fc muteins were expressed in HEK293 cells. To collect dose-response data, IgGs were coated at a concentration of 1 μg/ml in a 384-well Maxisorp ELISA plate and a serial 2fold dilution of the TWEAKR mutein containing supernatant was used as soluble binding partner. Detection was done with anti-HIS-HRP and Amplex Red.

[2] = target: T6, TPP-2608 (TweakR-ECD-34-68-hIgGFc-His-R38A) (human); experiment: as above
T6 construct: used as HEK293 supernatant
Protocol: as §1

[3] = target: T7, TPP-2622 (TweakR-ECD-34-68-hIgGFc-His-S61A) (human); experiment: as above
T7 construct: used as HEK293 supernatant
Protocol: as §1

[4] = target: T8, TPP-2619 (TweakR-ECD-34-68-hIgGFc-His-R58A) (human); experiment: as above
T8 construct: used as HEK293 supernatant
Protocol: as §1

[5] = target: T9, TPP-2621 (TweakR-ECD-34-68-hIgGFc-His-H60A) (human); experiment: as above
T9 construct: used as HEK293 supernatant
Protocol: as §1

[6] = target: T10, TPP-2611 (TweakR-ECD-34-68-hIgGFc-His-W42A) (human); experiment: as above
T10 construct: used as HEK293 supernatant; also called W42A (34-68 construct)
Protocol: as §1

[7] = target: T11, TPP-2623 (TweakR-ECD-34-68-hIgGFc-His-D62A) (human); experiment: as above
T11 construct: used as HEK293 supernatant
Protocol: as §1

[8] = target: T12, TPP-2616 (TweakR-ECD-34-68-hIgGFc-His-D51A) (human); experiment: as above
T12 construct: used as HEK293 supernatant
Protocol: as §1

[9] = target: T13, TPP-2609 (TweakR-ECD-34-68-hIgGFc-His-S40A) (human); experiment: as above
T13 construct: used as HEK293 supernatant
Protocol: as §1

[10] = target: T14, TPP-599 (HUMAN-TNFRSF12Aaa28-80-hIgG1-Fc) (human); experiment: ELISA, TWEAKR-Fc coated 62 ng/ml, biotin-IgG titrated; + means IC50 1 to 150 pM;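 also: biotinylated IgG binding to immobilized TWEAKR-Fc muteins, detected with Streptavidin-HRP and Amplex Red, IC50 derived from fitted dose-response curves of twofold serial dilutions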
T14 construct: dimeric; also called human TWEAKR Fc; TWEAKR-Fc
Protocol: To collect dose-response data, the different TWEAKR-Fc muteins were coated with a low concentration (62 ng/ml) in a 384-well Maxisorb ELISA plate and a serial 2fold dilution of biotinylated IgG starting with a concentration of 100 nM was used as soluble binding partner. Detection was done with Streptavidin-HRP and Amplex Red.
The dose-response data were fitted and IC50s determined.

[11] = target: T15, TPP-2614 (TweakR-ECD-34-68-hIgGFc-His-D47A) (human); experiment: ELISA, antibody coated at 1 µg/ml, TWEAKR variant at 250 ng/ml, anti-HIS HRP; normalized by WT; the legend of B does not name the variant, D47A by paragraph 82 and paragraph 368
T15 construct: also called D47A TWEAKR mutein
Protocol: (§2) Antibodies were coated (1 μg/ml), TWEAKR variant was added at 250 ng/ml, detection via anti-HIS HRP. […] Antibodies were coated (1 μg/ml), TWEAKR variant was added 250 ng/ml, detection via anti-HIS HRP.

[12] = target: T15, TPP-2614 …; experiment: ELISA, IgG coated 1 ug/ml, TWEAKR variant 250 ng/ml, anti-HIS HRP (FIG. 6C)
Protocol: as §2

[13] = target: T16, TPP-2203 (TWEAKR-ECD-34-68-hIgGFc-His) (human); experiment: ELISA, TPP-2203 coated at 1 µg/ml, biotinylated IgG at 0.08 µg/ml (open bar) and 0.3 µg/ml (filled bar), Streptavidin-HRP, Amplex Red
T16 construct: dimeric; also called TWEAKR(34-68)-Fc fusion protein; truncated ectodomain 34-68
Protocol: Detection was done with Streptavidin-HRP and Amplex-Red substrate.
To analyze for binding, 1 μg/ml of the respective dimeric TWEAKR-Fc construct were coated and, 0.3 μg/ml and 0.08 μg/ml of biotinylated IgG were used as soluble binding partner. Detection was done with Streptavidin-HRP and Amplex-Red substrate.

[14] = target: T1, BCMA (TNFRSF17) Fc fusion protein; experiment: ELISA, Fc fusion protein coated at 1 µg/ml, TPP-2090 at 75 nM, Amplex Red;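 also: binding reported as ELISA signal intensity in Rfu against a panel of TNF receptor superfamily members presented as Fc fusion proteins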
Description: (§3) Shown is the result of an ELISA: Y is “ELISA signal intensity [Rfu]”; X are “TNF receptor superfamily proteins tested (Fc-fusion proteins)”: 1 is “TWEAKR”; 2 is “TWEAKR”; 3 is “Apo-3”; 4 is “Trail-R1”; 5 is “Trail-R2”; 6 is “CD385”; 7 is “CD95”; 8 is “Rank”; 9 is “TNF-R1”; 10 is “TNF-R2”; 11 is “BAFF-R”; 12 is “DcR3”; 13 is “BCMA”; 14 is “TACI”; 15 is “OX40”; 16 is “CD30”; 17 is “CD27”; 18 is “CD40”; 19 is “Osteoprotegerin”; 20 is “EDAR”; 21 is “GITR”; 22 is “HVEM”; 23 is “NGF R”; 24 is “Trail R3”; 25 is “Lymphotioxin B R”; 26 is “Trail R4”; 27 is “EDA2R”; 28 is “TROY”; 29 is “RELT”; 30 is “4-1BB”.
(§4) To collect dose-response data a serial 3fold dilution of biotinylated IgG starting with a concentration of 2 μM was used as soluble binding partner. Detection was done with anti-hIgG1-HRP and Amplex Red.

[15] = target: T17, Lymphotioxin β R Fc fusion protein (Human, UniProt P36941 31-227); experiment: as above
T17 construct: extracellular domain; bought; also called Lymphotioxin B R
Description: as §3, §4

[16] = target: T2, GITR (TNFRSF18) Fc fusion protein; experiment: as above
Description: as §3, §4

[17] = target: T3, NGF R (TNFRSF16) Fc fusion protein; experiment: as above
Description: as §3, §4

[18] = target: T4, OX40 (TNFRSF4) Fc fusion protein; experiment: as above
Description: as §3, §4

[19] = target: T18, BAFF-R (TNFRSF13C) Fc fusion protein (Human, UniProt Q96RJ3 1-78); experiment: as above
T18 construct: extracellular domain; bought
Description: as §3, §4

T17 sequence (P36941 31-227): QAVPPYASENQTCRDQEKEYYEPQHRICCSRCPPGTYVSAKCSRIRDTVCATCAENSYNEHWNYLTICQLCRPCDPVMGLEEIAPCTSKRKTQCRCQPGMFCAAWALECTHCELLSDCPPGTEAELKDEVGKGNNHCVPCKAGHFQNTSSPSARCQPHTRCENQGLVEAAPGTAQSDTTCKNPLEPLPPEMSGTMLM

Binder	binding result [1]	binding result [2]	binding result [3]	binding result [4]	binding result [5]	binding result [6]	binding result [7]	binding result [8]	binding result [9]	binding result [10]	binding result [11]	% binding normalized by wt binding signal [12] [%]	binding result [13]	binding result [14]	binding result [15]	binding result [16]	binding result [17]	binding result [18]	binding result [19]
P4A8(TPP-1324) (antibody, human IgG1, kappa, V domains shown, Human IgG1; variable domains from WO2009/140177 with constant region added) VH: QVQLVQSGAEVKKPGASVKVSCKGSGYTFTDYGMHWVRQAPGQGLEWMGVISTYNGYTNYNQKFKGRVTMTVDKSTSTAYMELRSLRSDDTAVYYCARAYYGNLYYAMDYWGQGTLVTVSS VL: DIVLTQSPASLAVSLGQRATISCRASKSVSTSSYSYMHWYQQKPGQPPKLLIKYASNLESGVPARFSGSGSGTDFSLNIHPMEEDDTAMYFCQHSRELPFTFGGGTKLEIKR	no binding	no binding	no binding	no binding	no binding	no binding	no binding	no binding	no binding	binds									
TPP-2090 (antibody, human IgG1, kappa, V domains shown, Human IgG1) VH: EVQLLESGGGLVQPGGSLRLSCAASGFTFSPYPMIWVRQAPGKGLEWVSYISPSGGSTHYADSVKGRFTISRDNSKNTLYLQMNSLRAEDTAVYYCARGGDTYFDYFDYWGQGTLVTVSS VL: DIQMTQSPSSLSASVGDRVTITCRASQSISGYLNWYQQKPGKAPKLLIYQASSLQSGVPSRFSGSGSGTDFTLTISSLQPEDFATYYCQQSYTSPFITFGQGTKVEIKR											no binding (tested: 250 ng/ml (TWEAKR variant))	< 5	binds	no binding (tested: 75 nM)	no binding (tested: 75 nM)	no binding (tested: 75 nM)	no binding (tested: 75 nM)	no binding (tested: 75 nM)	no binding (tested: 75 nM)
